Results: patent publication US10344295B2, “Methods and compositions for providing resistance to glufosinate” (priority 2014, dated 2019)

B1: SEQ ID NO: 9: glufosinate resistance protein from Serratia sp. strain APG00119, encoded by SEQ ID NO: 10 (protein)
chain: MTTLSAPVLSLLDATPDDMAAVLRIYTQHVLYGAASFEEQPPTLAEMQLRLSKVREAGLPWLVAKSAGVIVGYCYATPYRPRPAYRFTVEDSVYIAEGQQGKGIGRALLSALIARCEQGPWRQMLAIVGDSAANRGSLALHQSLGFTSAGTLKAVGFKLGEWRDTQIMQRALGAGGNRHP
modifications: Serratia sp. strain APG00119
B2: SEQ ID NO:1: glufosinate resistance protein from Pseudomonas sp. strain APG00318, encoded by SEQ ID NO: 2 (protein)
chain: MSKTTVRIAQVSDAQAIQAIYAPMVESTTISFELEPPSVEEMAMRIESTLLTYPYLVAVRDGQVIGYAYASQHRAREAYRWSVDVTVYISPEAHRSGVGRALYDVLLPTLKKQGFHAAYAGIALPNDGSVGLHEALGFAHIGTYPEVGFKHGAWRDVGYWRIALDSTNPPKLPVLFSEISLF
modifications: Pseudomonas sp. strain APG00318
B3: SEQ ID NO: 7: glufosinate resistance protein from Flavobacterium sp. strain APG00135, encoded by SEQ ID NO: 8 (protein)
chain: MSVILRPATVNDLEKILEIVNHSILHTTANYSYDIQTIEVQTKWFEDKKAKNLPIVVADLDGEVVGFGSYGQFREKIGYQYTVEHSVYVVDNVIGKGIGSKLLTELIRLAKEQGYHVMIGAIDADNAGSITFHEKFGFVATGTIREVGYKFDHWLDLVFMQLILK
modifications: Flavobacterium sp. strain APG00135

Experiments:
TOP10 E. coli cells = experiment: minimum inhibitory concentration experiment: growth of E. coli in liquid media with glufosinate; format: cell-based
Method: FIG. 1 provides a minimal inhibitory concentration experiment. A polynucleotide encoding SEQ ID NO: 1 was transformed into E. coli cells for protein expression with an N-terminal maltose binding protein. The resulting E. coli clone was analyzed for the ability to grow in the presence of glufosinate.
Predicted ORFs (open reading frames) and protein products from genome sequences of several bacterial isolates were identified. A predicted protein was found with 43.53% identity to the phosphinothricin acetyltransferase (PAT) gene. This gene coding for a new GluR (glufosinate resistance) protein was cloned from that strain and is referred to herein as GluRAP1 and set forth in SEQ ID NO:1 (protein sequence) and 2 (DNA sequence). […] The gene coding for SEQ ID NO: 1 was cloned into the pMAL vector and transformed into TOP10 E. coli cells for protein expression with an N-terminal Maltose Binding Protein. […]
The strain was subsequently grown with success on 100 mM glufosinate-supplemented M63 minimal media; while the gene coding for a new GluR (glufosinate resistance) protein was cloned from that strain and referred to herein as GluRAP and set forth in SEQ ID NO:1 and 2. […] The resulting E. coli clone was analyzed for the ability to grow in the presence of glufosinate. […]

E. coli = experiment: growth of E. coli expressing MBP fusions under various glufosinate concentrations after IPTG induction (FIG. 3); format: cell-based; conditions: compared with the other genes
Method: Genes coding for glufosinate-resistant proteins were cloned as MBP (Maltose Binding Protein) fusions and expressed in E. coli. These E. coli strains were grown. The ability of the strains to tolerate and continue to grow in the presence of glufosinate was measured under various glufosinate concentrations upon induction of gene expression by addition of IPTG into the media in which the strains were growing.

soy callus = experiment: selection of transformed soy callus on medium containing glufosinate; format: cell-based, soybean; conditions: medium containing 25 uM glufosinate; construct pSV37; GUS stain confirmed
Method: Transgenic plants were selected by incubating callus on medium containing 25 uM glufosinate.
Transgenic plants were selected by incubating callus on medium containing 25 uM glufosinate. […] (FIG. 4) See above for construct pSV37 that carries APG00318 gene.

Molecule	glufosinate concentration tolerated by control E. coli (TOP10 E. coli cells; control E. coli, minimum inhibitory concentration experiments)	tolerance level to glufosinate of E. coli cultures carrying the gene (E. coli)	glufosinate resistance of transformed soy callus (soy callus)	concentration of glufosinate at which the E. coli clone was able to grow in liquid media (TOP10 E. coli cells; E. coli clone expressing the protein with N-terminal maltose binding protein (pMAL))
CP(=O)(O)CCC(N)C(=O)O (stereo not drawn) [glufosinate]	≤ 1 mM			
B1		higher tolerance level to glufosinate		
B2		higher tolerance level to glufosinate	Glufosinate resistance was observed	100 mM
B3		higher tolerance level to glufosinate		
